Results from US20220185894A1 (F STAR THERAPEUTICS, published 2022).
Numbering of substitutions follows the chain as printed.

Legend:
[1] = target: T1, cynomolgus LAG-3 expressed on cells (cynomolgus monkey, UniProt P18627 24-525 (human entry)); assay: flow cytometry on HEK cells expressing cynomolgus LAG-3
T1 construct: also called cLAG-3; cyno LAG-3
T1 chain: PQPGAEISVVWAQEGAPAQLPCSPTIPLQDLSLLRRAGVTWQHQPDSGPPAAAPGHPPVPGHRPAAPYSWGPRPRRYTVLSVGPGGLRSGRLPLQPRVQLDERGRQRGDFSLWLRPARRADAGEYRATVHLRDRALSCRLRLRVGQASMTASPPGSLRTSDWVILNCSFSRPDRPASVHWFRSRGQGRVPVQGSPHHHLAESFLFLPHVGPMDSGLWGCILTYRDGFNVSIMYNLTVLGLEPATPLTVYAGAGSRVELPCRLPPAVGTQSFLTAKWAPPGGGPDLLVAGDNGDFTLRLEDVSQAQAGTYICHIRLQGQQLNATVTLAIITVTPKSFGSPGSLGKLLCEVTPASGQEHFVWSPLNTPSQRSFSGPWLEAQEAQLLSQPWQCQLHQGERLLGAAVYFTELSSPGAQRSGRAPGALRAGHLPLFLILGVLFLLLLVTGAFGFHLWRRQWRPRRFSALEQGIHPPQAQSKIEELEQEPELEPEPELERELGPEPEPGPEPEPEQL
Experimental: (§1) The affinity of the mAb² (all containing the LALA mutation) for cell expressed human or cynomolgus LAG-3 was determined using flow cytometry. HEK cells expressing human or cynomolgus LAG-3 grown in DMEM (Life Technologies, 61965-026) containing 10% FBS (Life Technologies, 10270-1-6), 100 μg/ml Hygromycin B (Melford Laboratories Ltd, Z2475), 15 μg/ml Blasticidin (Melford Laboratories Ltd, B1105) and 1 μg/ml Doxycyclin (Sigma, D9891) were detached from tissue culture flasks using cell dissociation buffer (Life Technologies, 13151-014) and seeded in V-bottom 96-well plates (Costar, 3897) at 2×10⁵ cells/well. The plates were centrifuged at 1500 rpm for 3 min at 4° C. to pellet the cells. A dilution series of the mAb² (or control mAb) were incubated with the cells in a 100 μl volume for 1 h at 4° C. The plates were washed and secondary antibody (Anti-human Fc-488, Jackson ImmunoResearch, 109-546-098) was diluted 1:1000 in PBS and 100 μl was added to the cells for 30 min at 4° C. (plates were kept in the dark). The plates were washed and then cells were resuspended in 100 μl PBS containing 1 μg/ml DAPI (Biotium, 40043). The plates were read using Canto II flow cytometer (BD Bioscience). Dead cells were excluded and the fluorescence in the FITC channel (488 nm/530/30) was measured. The data was fit using log (agonist) vs response in GraphPad Prism Software. The plates were read on a BD FACSCanto II cytometer (BD Biosciences) and the data analysed using FlowJo.

[2] = target: T2, human LAG-3 expressed on cells (human, UniProt P18627 23-525); assay: flow cytometry on HEK cells expressing human LAG-3
T2 construct: also called hLAG-3; DO11.10 hLAG-3
T2 sequence: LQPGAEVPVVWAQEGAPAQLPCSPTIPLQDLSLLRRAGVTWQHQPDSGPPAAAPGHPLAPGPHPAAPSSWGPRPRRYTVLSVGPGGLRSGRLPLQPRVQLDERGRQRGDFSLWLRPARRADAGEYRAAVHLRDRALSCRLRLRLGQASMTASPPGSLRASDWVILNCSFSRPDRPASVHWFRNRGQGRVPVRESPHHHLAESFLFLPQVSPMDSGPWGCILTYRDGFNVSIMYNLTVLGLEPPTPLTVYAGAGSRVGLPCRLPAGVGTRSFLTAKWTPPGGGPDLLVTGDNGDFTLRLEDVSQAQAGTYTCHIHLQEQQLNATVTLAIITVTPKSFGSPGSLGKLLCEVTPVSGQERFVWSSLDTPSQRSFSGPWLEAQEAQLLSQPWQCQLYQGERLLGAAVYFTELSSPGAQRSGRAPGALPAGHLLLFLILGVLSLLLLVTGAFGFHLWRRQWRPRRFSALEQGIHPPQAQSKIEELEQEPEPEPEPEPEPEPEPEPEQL
Experimental: as §1

[3] = target: T3, human PD-L1 Fc (R&D Systems, 156-B7) (human, UniProt Q9NZQ7 19-239); assay: SPR, BIAcore T200; mAb2 captured on Protein L, PD-L1 Fc injected
T3 construct: Bought protein; not shown: Fc tag of the bought fusion protein

[4] = target: human PD-L1 expressed on cells (human, UniProt Q9NZQ7 19-290); assay: cell-based or functional assay
[5] = target: T4, recombinant Fc-tagged human LAG-3 (R&D Systems, 2319-L3-050) (human, UniProt P18627 23-450); assay: SPR, BIAcore T200; mAb2 captured on Protein L, human LAG-3 Fc injected
T4 construct: Bought protein; also called LAG-3 Fc; human LAG-3-Fc; not shown: Fc tag of the bought fusion protein
T4 sequence: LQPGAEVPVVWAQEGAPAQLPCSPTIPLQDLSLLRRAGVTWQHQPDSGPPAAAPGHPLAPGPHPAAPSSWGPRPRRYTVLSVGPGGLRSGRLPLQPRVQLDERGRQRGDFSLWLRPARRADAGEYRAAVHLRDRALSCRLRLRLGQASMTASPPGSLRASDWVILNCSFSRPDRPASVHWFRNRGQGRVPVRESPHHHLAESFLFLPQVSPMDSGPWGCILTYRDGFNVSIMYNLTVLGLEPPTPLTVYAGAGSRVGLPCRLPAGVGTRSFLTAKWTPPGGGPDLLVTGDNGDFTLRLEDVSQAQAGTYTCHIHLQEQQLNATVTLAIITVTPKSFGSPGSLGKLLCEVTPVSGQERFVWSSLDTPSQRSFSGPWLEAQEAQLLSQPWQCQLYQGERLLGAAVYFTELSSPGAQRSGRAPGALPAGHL

[6] = target: T1, cynomolgus LAG-3 expressed on cells; assay: flow cytometry on DO11.10 cells expressing cynomolgus LAG-3
Experimental: DO11.10:LAG-3 cell suspensions were prepared in PBS+2% BSA (Sigma, A7906) and seeded at […] with 50 μl/well in V-bottomed 96-well plates (Costar, 3897). […] The plates were washed and 100 μl/well of secondary antibody (anti-human Fc-488 antibody, Jackson ImmunoResearch, 109-546-098) diluted 1:1000 in PBS+2% BSA was then added and incubated for 30 mins at 4° C. in the dark. The plates were washed and resuspended in 100 μl of PBS containing DAPI (Biotium, 40043) at […]. The plates were read using Canto II flow cytometer (BD Bioscience). The dead cells were excluded and the fluorescence in the FITC channel (488 nm/530/30) was measured. The data was fit using log (agonist) vs response in GraphPad Prism Software.

[7] = target: T5, human FcγRIIb/c (R&D Systems, 1875-CD) (human, UniProt P31994 46-217); assay: SPR, Biacore T200; FcγR immobilised, 500 µg/ml injected
T5 construct: Bought recombinant protein
T5 sequence (looked up): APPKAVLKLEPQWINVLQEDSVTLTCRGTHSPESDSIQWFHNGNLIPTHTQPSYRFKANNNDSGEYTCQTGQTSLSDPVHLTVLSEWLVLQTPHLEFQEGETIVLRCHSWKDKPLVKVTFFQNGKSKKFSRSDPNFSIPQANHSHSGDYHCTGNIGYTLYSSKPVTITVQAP
Experimental: (§2) The introduction of the LALA mutation in the CH2 domain of human IgG1 is known to reduce Fc γ receptor binding (Bruhns, P., et al. (2009); and Xu, D. et al. (2000)). […] The human FcγR binding assay was performed on a Biacore T200 instrument (GE Healthcare) using the Fcabs in the mock mAb² format. […] For each immobilized chip a flow cell was left blank for background subtraction. FcγR were immobilized using a concentration of 5 μg/ml in sodium acetate pH5 (ForteBio, 18-1069) and injected at a flow rate of 10 μl/min in 15 second cycles until the required immobilization level was reached.
(§3) The flow cells were regenerated by injecting 10 mM sodium hydroxide (VWR, 28244.262) at a flow rate of 100 μl/min for 30 seconds. The data analysis was performed with BiaEvaluation software version 3.2 RC1 by double referencing against the blank flow cell (without immobilized FcγR) and subtracting a buffer cycle from test mAb².

[8] = target: T6, human FcγRIIa (R&D Systems, 1330-CD) (human, UniProt P12318 36-218, limits assumed); assay: as above
T6 construct: Bought recombinant protein
T6 sequence (looked up): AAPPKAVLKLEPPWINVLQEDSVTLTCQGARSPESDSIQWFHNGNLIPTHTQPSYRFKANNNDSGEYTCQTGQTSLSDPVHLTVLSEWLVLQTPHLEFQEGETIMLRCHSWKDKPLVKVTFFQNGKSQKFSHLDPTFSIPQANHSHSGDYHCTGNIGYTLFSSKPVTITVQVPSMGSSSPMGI
Experimental: as §2, §3

[9] = target: T7, human FcγRIIIa (R&D Systems, 4325-FC) (human, UniProt P08637 17-208); assay: SPR, Biacore T200; FcγR immobilised, 200 µg/ml injected
T7 construct: Bought recombinant protein
Experimental: as §2, §3

[10] = target: T8, human FcγRI (R&D Systems, 1257-FC) (human, UniProt P12314 16-288); assay: as above
T8 construct: Bought recombinant protein
Experimental: as §2, §3

T3 sequence (Q9NZQ7 19-239 limits assumed): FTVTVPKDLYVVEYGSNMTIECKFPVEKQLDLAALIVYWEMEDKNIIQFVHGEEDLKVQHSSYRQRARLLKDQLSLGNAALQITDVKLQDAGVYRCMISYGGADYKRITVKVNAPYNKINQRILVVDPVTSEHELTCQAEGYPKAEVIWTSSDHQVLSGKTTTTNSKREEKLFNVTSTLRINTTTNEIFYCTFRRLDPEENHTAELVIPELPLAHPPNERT
T8 sequence (P12314 16-288 limits assumed): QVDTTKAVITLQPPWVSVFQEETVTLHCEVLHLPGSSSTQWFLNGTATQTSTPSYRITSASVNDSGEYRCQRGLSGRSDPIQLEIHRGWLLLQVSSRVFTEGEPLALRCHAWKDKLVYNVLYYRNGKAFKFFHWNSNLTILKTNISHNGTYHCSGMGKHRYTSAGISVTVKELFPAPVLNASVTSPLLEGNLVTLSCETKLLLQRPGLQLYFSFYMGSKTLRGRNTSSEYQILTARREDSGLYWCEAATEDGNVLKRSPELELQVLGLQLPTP
T7 sequence (P08637 17-208 limits assumed): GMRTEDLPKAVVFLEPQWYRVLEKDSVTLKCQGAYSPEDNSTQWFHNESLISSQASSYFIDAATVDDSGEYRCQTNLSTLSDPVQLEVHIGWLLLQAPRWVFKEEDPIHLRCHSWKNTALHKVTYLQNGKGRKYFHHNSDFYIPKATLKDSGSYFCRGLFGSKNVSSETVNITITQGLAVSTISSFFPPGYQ
Chain of human PD-L1 expressed on cells (Q9NZQ7 19-290 limits assumed): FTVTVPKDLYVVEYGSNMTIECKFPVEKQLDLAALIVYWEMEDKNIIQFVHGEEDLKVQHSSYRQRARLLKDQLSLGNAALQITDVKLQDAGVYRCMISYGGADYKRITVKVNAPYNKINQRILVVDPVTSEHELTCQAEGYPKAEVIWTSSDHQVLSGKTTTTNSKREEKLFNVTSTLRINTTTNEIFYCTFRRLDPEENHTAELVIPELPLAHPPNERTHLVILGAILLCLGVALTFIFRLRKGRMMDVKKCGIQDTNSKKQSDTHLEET

B1: anti-human LAG-3/PD-L1 mAb2 FS18-7-78/84G09 with LALA mutation (bispecific antibody, human IgG1, kappa, L234A L235A)
heavy: EVQLVESGGGLVQPGRSLRLSCAASGFTFDDYAMHWVRQTPGKGLEWVSGISWKSNIIGYADSVKGRFTISRDNAKNSLYLQMNSLRAEDTALYYCARDITGSGSYGWFDPWGQGTLVTVSSASTKGPSVFPLAPSSKSTSGGTAALGCLVKDYFPEPVTVSWNSGALTSGVHTFPAVLQSSGLYSLSSVVTVPSSSLGTQTYICNVNHKPSNTKVDKKVEPKSCDKTHTCPPCPAPEAAGGPSVFLFPPKPKDTLMISRTPEVTCVVVDVSHEDPEVKFNWYVDGVEVHNAKTKPREEQYNSTYRVVSVLTVLHQDWLNGKEYKCKVSNKALPAPIEKTISKAKGQPREPQVYTLPPSWDEPWGEDVSLTCLVKGFYPSDIAVEWESNGYKEENYKTTPPVLDSDGSFFLYSKLTVPYDRWVWPDEFSCSVMHEALHNHYTQKSLSLSPG
light: DIQMTQSPSSLSASVGDRVTITCRASQSISSYLNWYQQKPGKAPKPLIYVASSLQSGVPSSFSGSGSGTDFTLTISSLQPEDFATYYCQQSYSNPITFGQGTRLEIKRTVAAPSVFIFPPSDEQLKSGTASVVCLLNNFYPREAKVQWKVDNALQSGNSQESVTEQDSKDSTYSLSSTLTLSKADYEKHKVYACEVTHQGLSSPVTKSFNRGEC
notes: also called FS18-7-78/84G09 LALA; FS18-7-78/84G09LALA
B1 was tested, and the EC50 [1] was 24.8 nM, the “fold better binding (EC50) than control antibody 25F7” value [1] was at least 2 fold and the EC50 [2] was 2.53 nM. For the same binder, the Kd [3] was 1 nM, the koff [3] was 0.0001 s⁻¹ and the kon [3] was 100000 M⁻¹ s⁻¹. For the same binder, the “Maximal IL2 release calculated as % ctrl (84G09 + 25F7)” value [4] was 64.4%, the Kd [5] was 0.029 nM and the koff [5] was 0.00014 s⁻¹. For the same binder, the kon [5] was 4.8e+06 M⁻¹ s⁻¹.

B2: anti-human LAG-3/FITC mock mAb2 FS18-7-62/4420 comprising LALA mutation (bispecific antibody, human IgG1, kappa, L234A L235A)
heavy: EVKLDETGGGLVQPGRPMKLSCVASGFTFSDYWMNWVRQSPEKGLEWVAQIRNKPYNYETYYSDSVKGRFTISRDDSKSSVYLQMNNLRVEDMGIYYCTGSYYGMDYWGQGTSVTVSSASTKGPSVFPLAPSSKSTSGGTAALGCLVKDYFPEPVTVSWNSGALTSGVHTFPAVLQSSGLYSLSSVVTVPSSSLGTQTYICNVNHKPSNTKVDKKVEPKSCDKTHTCPPCPAPEAAGGPSVFLFPPKPKDTLMISRTPEVTCVVVDVSHEDPEVKFNWYVDGVEVHNAKTKPREEQYNSTYRVVSVLTVLHQDWLNGKEYKCKVSNKALPAPIEKTISKAKGQPREPQVYTLPPSWDEPWGEDVSLTCLVKGFYPSDIAVEWESNGIPEWNYKTTPPVLDSDGSFFLYSKLTVPYDRWVWPDEFSCSVMHEALHNHYTQKSLSLSPG
light: DVVMTQTPLSLPVSLGDQASISCRSSQSLVHSNGNTYLRWYLQKPGQSPKVLIYKVSNRFSGVPDRFSGSGSGTDFTLKISRVEAEDLGVYFCSQSTHVPWTFGGGTKLEIKRTVAAPSVFIFPPSDEQLKSGTASVVCLLNNFYPREAKVQWKVDNALQSGNSQESVTEQDSKDSTYSLSSTLTLSKADYEKHKVYACEVTHQGLSSPVTKSFNRGEC
notes: also called FS18-7-62/4420LALA; FS18-7-62 in mock mAb2 format
For B2, the EC50 [6] was 0.5 nM, the “binding response at end of association (RU)” value (“binding response at end” below) [7] was -8.5 RU and the “binding response at end” value [8] was -10 RU. For the same binder, the “binding response at end” value [9] was 0.7 RU and the “binding response at end” value [10] was -0.9 RU.

B3: anti-human LAG-3/FITC mock mAb2 FS18-7-78/4420 comprising LALA mutation (bispecific antibody, human IgG1, kappa, L234A L235A)
heavy: B2 heavy with I387Y, P388K, W390E
light: B2 light
notes: also called FS18-7-78/4420LALA; FS18-7-78 in mock mAb2 format
With B3 the EC50 [6] was 0.5 nM, the “binding response at end” value [7] was -9.2 RU and the “binding response at end” value [8] was -10.7 RU. For the same binder, the “binding response at end” value [10] was -0.3 RU.
